# Experimental data reported in the nanobody polyreactivity screen of Harvey et al. (2022).
# Assay: yeast display, Sf9 membrane polyspecificity reagent, FACS + sequencing; frameworks hold sequencing errors
# Procedure, shortened: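 Sorting gates, low and high (top ~1%), were placed on anti-HA fluorescence to track expression and on streptavidin fluorescence to track reagent binding. A clone's polyreactivity label is taken from the gate it came out of. The reagent was 10% biotinylated, detergent-solubilized Sf9 membrane, applied for 1 hour at 4 °C to galactose-induced yeast display cells.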
row,Sequence,polyreactivity (PSR sort gate)
1,QVQLVESGGGLVQAGGSLRLSCAASGSILPLYAMGWYRQAPGKERELVATISNAGSTTYADSVKGRFTISRDNAKNTVYLQMHSLKPEVTAVYYCNAESEWGWVYVGYDYWGQGTQVTVSS,low polyreactivity
2,QVQLVESGGGLVQAGGSLRLSCAASGSTSGKYAMGWYRQAPGKERELVAGITKGGGGTYYADSVKGRFTISRDNAKNTVYLQMNSLKPEDTAVYYCAAGTLYSLYFGRHGYWGQGTQVTVSS,low polyreactivity
3,QVQLVESGGGLVQAGGSLRLSCAASGFILYFNAMGWYRQAPGKERELVAAITSDGGSTYYADSVKGRFTISRDNAKNTVYLQMNSLKPEDTAVYYCAADASTWYTEEYWGQGTQVTVSS,low polyreactivity
4,QVQLVESGGGLVQAGGSLRLSCAASGMILGVNVMGWYRQAPGKERELVAAISGGGRTYYADSVKGRFTISRDNAKNTVYLLMNSLKPEDTAVYYCAARVYSLGYGGDYWGQGTHVTVSS,high polyreactivity
5,QVQLVESGGGLVQAGGSLRLSCAGSGSTFWVNDMGWSRQAPGKERELVASITISTGATYYADSVKGRFTISRDTAKNTVYVQINSLKPEDTAVYYCNVEFENSGWKSFDYWGQGTQVTVSS,low polyreactivity
6,QVQLEESGGGLVQAGGSLRLSCAASGSIFFSYAMGWYRQAPGKERELVAAISSGGSTYYADSVKGRFTISRDNAKNTVYLQMNSLKPEDTAVYYCAARGYRLVPVDFYYWGQGTQVTVSS,low polyreactivity
7,QVQLVESGGGLVQAGGSLRLSCAASGSISGSYAMGWYRQAPGKERELVASITTSGGGTYYADSVKGRFTISRDNAKNTVYLQMNSLKPEDTAVFYCAVEYGYPYAGLDYWGQGTQVTVSS,low polyreactivity
8,QVQLVESGGGLVQAGGSLRLSCAASGRTFGKYAMGSYTQAPGKETELVAAISSSGGSTYYADSVKGRFTISRDNAKNTVYLQMNSVKPEDTAVYYCGARWSYRDDYWGQGTQVTVSS,high polyreactivity
9,QVQLVESGGGLVQAGGSLRLSCAASGFTFRDNAMGWYRQAPGKEWELVAAITWDGGSTYYADSVKGRFTISRDNAKNTVYLQMNSLKPEDTAVYYCAASRYYPRYFKRYYYWGQGTQVTVSS,high polyreactivity
10,QVQLVESGGGLVQAGGSLRLSCAASGRTFVRYAMGWYRQAPGQERELVARITSRGTSTYYADSVKGRFTISRDNAKNTVYLQKNSLKPEDTAVYYCNKVRTFRDKSRYDYWGQGTQVTVSS,low polyreactivity
11,QFQLVESGGGLVQAGGSLRLSCAASASTYYYYVMGWSIQAPVKEREVVAAITRSTGSTYYADSVKGRFTISRDNAKNTVYLNKNSLKPEETSVYYCAAEGPKWYYSGAFDYWGQGSQVTVSS,low polyreactivity
12,QVQLVESGGGLVQAGGSLRLSCAASGSIFPPYAMGWYRQAPGKERELVAAIRRGSSTYYADSVKGRFTISRDNAKNTVYLQMNSLKPEDTAVYYCAARGRYRIGPGRYGKRYDYWGQGTQVTVSS,high polyreactivity
13,QVQLVESGGGLVQAGGSLRLSCAASGFIFGVNAMGWYRQAPGKERDLVAAITRNGGSTYYADSVKGRFTISRDNAKNTVYLQMNSLKPEDTAVYYCAKYVRRAPSTFDVDYWGQGTQVTVSS,high polyreactivity
14,QVQLVESGGGLVQAGGSLRLSCAASGSTFDWYAMGWYRQAPGKERELVAAISRGSRTYYADSVKGRFTISRDNAKNTVYLQKNSLKPEDTAVYYCARDKPTSYPDYYYWGQGTQVTVSS,high polyreactivity
15,QVQLVESGGGLVQAGGSLRLSCAASGSIFCRNAMGWYRQAPGKERELVAAITSGGTTNYADSVKGRFTISRDNAKNSVYLQMNSLKPEDTAVYYCATRASYLRRYDHPHSDVDYWGQGTQVTVSS,low polyreactivity
16,QGQLVESGGGLVQAGGSLRLSSAASGSTFAHYAMGWYRQAPGKERELVAAISRGGGSTYYADSVKGRFTISRDNAKNTVYVQMNSLKPEDTAVYYCAADPRYRVTLGFDYWGQGTQVTVSS,high polyreactivity
17,QVQLVESGGGLVQAGGSLRLSCADSGRTFYPNAMGWYRQAPGKERELVARIRQSGTSTYYADSVKGRFTISRDNAKNTVYLQMNSLKPEDTAVYYCAARYAVGYPPYRYYYWGQGTQVTVSS,high polyreactivity
18,QVQLVESGGGLLQAGGSLRLSCAASGFIFIQYAMGWYRQAPGKEREFVAAITGRGSSTYYADSVKGRFTISRDNAKNTVYLQMNSLKPEDTAVFYCAADRDSYIFYYYWSYDYWGQGTQVTVSA,high polyreactivity
19,QVQLVVSGGGLVQAGGSLRLSCAASGIIFPFYVMGWYRQAPGKERELVAAITWSGDGTYYADSVKGRFTISRDNAKNTVYLQMNSLKPEDTAVYYCAAQWYYGGVKYYYWGQGTQVTVSS,low polyreactivity
20,QVQLVESGGGLVQAGGSLRLICAASGISFDGNPMGWYRQAPGKERELVASITSDSSTNYADSVKGRFTISRDNAKNTVYLQMKSLKPEDTAVYYCAADHWIAPRRDYWGQGTQVTVSS,low polyreactivity
21,QVQLVESGGGLVQAGGSLRLSCAASGFIFYRNTMGWYRQAPGKERELDAAISWSGARTYYADSVKGRFTISRDNAKNTVYLQMNSLKPEDTAVYYCNTVFYLHSTTTNGDYWGQGTQVTVSS,high polyreactivity
22,QVQLVESGGGLVQAGGSLRLSCAASGRTSILYAMGWYRQAPGKERELVATIYSGGRTYYADSVKGRFTISRDNAKNTVYLQMNSLKPEDTAVYYCAARPNATPRGQTKHYYWGQGTQVTVSS,high polyreactivity

row,Sequence,polyreactivity (PSR sort gate)
1,QVQLVESGGGLVQAGGSLRLSCAASGSIFGKNAMGWYRQAPGKERELVAAITRRGGSTYYADSVKGRFTISRDNAKNTVYLQMNSLKPEDTAVYYCNALLTGGYQDSYPDDYWGQGTQVTVSS,high polyreactivity
2,QDQLVESGGGLVQAGGSLRLSCPASGFTFERNTMGWYRQAPGKERELVAVITRRGGNTNYADSVKGRFTISRDNAKNTVYLQMNSLKPEDTAVYYCAAYYSHYGTRYDYWGQGTQVTVSS,high polyreactivity
3,QVQLVESGGGLVQAGGSLRLSCAASGSTFRRYAMGWYRPAPGKERELVAAISRSGGTTYYADSVKGRFTISRDNAKNTVYFQMNSLKPEDTAVYYCNARYPVVRYDYWGQGTQVTVSS,high polyreactivity
4,QVQLVESGGGLVQAGGSLRLSCAASGQTFGGYAMGWYRQAPGKERELVAAITKRGGNTDYADSVKGRFTISRDKAKNTVYLQMTSLKPEDTAVYYCAASRAVGFGYWGQGTQVTVSS,high polyreactivity
5,QVQLVDSGGGLVQAGGSLRLSCAASGGILKCYYMGRYRQATGKEMEFVSPITWSAGSTYYADSVKGRFTISRDNAKNTVYLQMNSLKPEDTAVHYCNVDWYPRGPHTVVFYDVSPYDYWGQGTQVTVSS,high polyreactivity
6,QVQLEESGGGLVQAGGSLRLSCAASGSTIDYYTMGWYRQAPGKERELVAAISSSGGSTYYADSVKGRFTISRDNAKNTVYLQMNSLKPEDTAVYYCNSDSWYPDHFSYYGPYDYWGQGTQVTVSS,low polyreactivity
7,QVQLVESGGGLVQAGGSVRLSCAASGSIFGWYAMGWYRQGPGKEREWVATITDRGGRTYYADSVKGRFTISRDNAKNTVYLQMNSLKPEDTAVYYCAADDCPFEAEYDSWGQGTQVTVSS,low polyreactivity
8,QVQLVESGGGLVQAGGSLRLSCAASGSTFGVNVMGWYRQAPGKERELVDAISRSGGRTYYADSVKGRFTISRDNAKNTVYLQMNSLKPEDTAVYYCNTRGYDYWGQGTQVTVSS,high polyreactivity
9,QVQLVESGGGLVQAGGSLRLSCAASGSTFTINVMGWYSQAPGKEREVVAAINGGGRTNYADSVKGRFTISRDHAKNTVNLQMNSLKPEDTAVYYCAADGLSNVRQMDYWGQGTQVTVSS,low polyreactivity
10,QVQLVESGGGLVQAGGSLRLSCAASGITFRRYTMGWYRQAPGKEMELVAAISRIGGSTYYADSVKGRFTISRDNAKNTVYLQMNSLKPEDTAVYYCARAGRVQPGSEDDYWGQGTQVTVSS,high polyreactivity
11,QVQLVESGGGLFQAGRSLRLSSPASGSSFISYAMGWYRQAPGKDRELVAAITSRGGRTYYADSVKGRFTISRDNAKYTVDLQMNCLKPDDTAVYYCAASFSYRIRRYDYWGQGTQVTVSS,high polyreactivity
12,QVQLVESGGGLVQAGGSLRLSCAASGRTCYNTMGWYRQAPGKERELVAAISRGGITNYADSVKGRFTISRDSAKKTGYLQMNRLKPEDTAVYYCNAEPKRYYYYYKFDYWGQGTQVTVSS,high polyreactivity
13,QVQLVESGGGLVQAGGSLRLSCAASGFTFVQYAMGWYRPAPGKERELVARISSSGGSTYYADSVKGRFTISRDNAKNTVYLQMTSLKPEDTAVYYCAARRSHYYYVARFDYWGQGTQVTVSS,high polyreactivity
14,QVQLVESGGGLVQAGGSLRLSCAASGRIFSQYAMGWYRQAPGKERELVAAISRRTGSTYYADSVKGRFTISRDNAKNTVYLQMNSLKPEDTAVYYCNKARLGWSYRQDDYLGQGTQVTVSS,high polyreactivity
15,QVQLVESGGGLVQAGGSLRLSCAASGFTFYSYTMGWYRQAPGKERELVAAISGRSVRTYYADSVKGRFTISRDNAKNTVYLQMNSLKPEDTAVYYCARAYYWRTSWYNYWGQGTQVTVSS,high polyreactivity
16,QVQLVESGGGLVQAGGRLRLSCAASGFTFSYNTMGWYRQEPGKERELVAAITGDVSTNYADSVKGRFTISRDNAKNTVYLQMNSVKPEDTAVYYCAARPNFPGYEDLSVDYDYWGQGTQVTVSS,low polyreactivity
17,QVQLVESGGGLVQAGGSLRLSCAASGPTYKYNAMGWYRQAPGKEREMVAAISSTGSTNYADSVKGRFTISRDNAKNTVYLQMNSLKPEDTAVYYCAASFYFVQWGWYYYWGQGTQVTVSS,low polyreactivity
18,QVQLVESCGGLVQAGGSLRLSCAASGRTFRYYAMGWYRQAPWKERELVAAIRRGGSTTYADSVKGRFTISRDNAKNTVYLQMNSLKPEDTAVYYCAARYPGTRGDGYWGQGTQVTVSS,high polyreactivity
19,QVQLVESGGGLVQAGGSLRLSCAASGFTFRTYAMGWYRQAPGKERELVADISGSGGSTYYADSVKGRFTISRDNAKNTVYLQMISLKPEDTAVYYCAATIYNWGYEREYWGQGTQVTVSS,high polyreactivity
20,QVQLVESGGGLVQAGGSLRLSCAASGSIFRINAMGWYRQAPGKEREFVAAIRGSGGRTYYADSVKGRFTISRDNAKNTVYLQMNSLKPEDTAVYYCAADFSYRYFQRTSWPFDYWGQGTQVTVSS,high polyreactivity
21,QVQLVESGGGLVQAGGSLRLSCAASGSIFRSYAMGWYRQAPGKERELVASITRSSGSTYYADSVKGRFTISRDNAKNTVYLQMNSLKPEDTAVYYCNAVVSKSRRFRVDYWGQGTQVTVSS,high polyreactivity
